Laboratory results published in IntAct's records for PubMed 9341158.

Assays:
[1] = target: ap1m1_human AP1M1 (UniProt Q9BXS5)
[2] = target: ap2m1_rat Ap2m1 (UniProt P84092)
ap2m1_rat Ap2m1, sequence (P84092 whole entry): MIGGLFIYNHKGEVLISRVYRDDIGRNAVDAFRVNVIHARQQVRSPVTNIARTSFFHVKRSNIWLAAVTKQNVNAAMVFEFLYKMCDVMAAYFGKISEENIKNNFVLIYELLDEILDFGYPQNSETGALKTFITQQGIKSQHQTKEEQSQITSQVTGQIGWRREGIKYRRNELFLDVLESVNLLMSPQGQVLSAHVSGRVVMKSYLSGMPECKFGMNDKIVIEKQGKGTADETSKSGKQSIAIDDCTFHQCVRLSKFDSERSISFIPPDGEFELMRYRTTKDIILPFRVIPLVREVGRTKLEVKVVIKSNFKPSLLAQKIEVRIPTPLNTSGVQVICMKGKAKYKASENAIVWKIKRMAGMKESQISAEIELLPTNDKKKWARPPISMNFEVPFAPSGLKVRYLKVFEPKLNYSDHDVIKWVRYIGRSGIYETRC

Trans-Golgi network integral membrane protein TGN38 (Rattus norvegicus (Rat)), P19814 Y350A, sequence (P19814 whole entry Y350A): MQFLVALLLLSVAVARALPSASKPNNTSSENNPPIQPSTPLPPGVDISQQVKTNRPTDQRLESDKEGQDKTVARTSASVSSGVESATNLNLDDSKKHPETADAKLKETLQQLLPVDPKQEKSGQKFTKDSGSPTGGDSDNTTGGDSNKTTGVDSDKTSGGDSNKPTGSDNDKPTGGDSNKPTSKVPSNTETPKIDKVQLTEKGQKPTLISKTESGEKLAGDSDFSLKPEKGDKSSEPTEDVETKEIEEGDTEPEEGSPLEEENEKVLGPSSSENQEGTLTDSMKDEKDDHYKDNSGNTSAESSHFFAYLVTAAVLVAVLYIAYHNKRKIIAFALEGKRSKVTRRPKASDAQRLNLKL
ap1m1_human AP1M1, sequence (Q9BXS5 whole entry): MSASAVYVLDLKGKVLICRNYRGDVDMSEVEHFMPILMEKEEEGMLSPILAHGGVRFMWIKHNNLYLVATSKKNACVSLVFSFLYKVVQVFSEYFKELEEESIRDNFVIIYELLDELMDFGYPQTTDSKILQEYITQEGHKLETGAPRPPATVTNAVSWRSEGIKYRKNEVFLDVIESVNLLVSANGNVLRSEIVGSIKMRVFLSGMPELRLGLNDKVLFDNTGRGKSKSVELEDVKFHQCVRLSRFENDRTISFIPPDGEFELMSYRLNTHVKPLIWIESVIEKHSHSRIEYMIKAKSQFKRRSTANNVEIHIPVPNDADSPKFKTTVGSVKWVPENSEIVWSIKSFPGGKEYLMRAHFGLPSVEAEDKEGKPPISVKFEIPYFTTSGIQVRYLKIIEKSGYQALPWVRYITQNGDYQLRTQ

effect of a mutation on the interaction [1]: decreasing interaction
effect of a mutation on the interaction [2]: decreasing interaction
Substance: Trans-Golgi network integral membrane protein TGN38 (Rattus norvegicus (Rat)), P19814 Y350A
